Measurements taken from paper PMC12609080, “Substrate recognition by human separase” (Science Advances, 2025).

B1: MBP-SCC1^350–550 with C-terminal tetracysteine motif, unphosphorylated (domain or fragment, human, UniProt O60216 350-550, looked up)
chain: TLDLAPPTKKLMMWKETGGVEKLFSLPAQPLWNNRLLKLFTRCLTPLVPEDLRKRRKGGEADNLDEFLKEFENPEVPREDQQQQHQQRDVIDEPIIEEPSRLQESVMEASRTNIDESAMPPPPPQGVKRKAGQIDPEPVMPPQQVEQMEIPPVELPPEEPPNICQLIPELELLPEKEKEKEKEKEDDEEEEDEDASGGDQD
modifications: FlAsH-EDT2 fluorescent dye on the C-terminal tetracysteine motif
notes: human SCC1/RAD21, amino acids 350 to 550 (holds cleavage site 2, R427); pETM41 vector; also called SCC1 site 2 (amino acids 350 to 550); source: E. coli BL21, purified (HiTrap MBP, Superdex 200); not shown: 6xHis-MBP, N-terminal, kept

Tests used:
Assay in all cases: fluorescence polarisation; FlAsH-EDT2-labelled SCC1 fragment as probe, inactive separase added; 25 mM Hepes (pH 8.0), 100 mM NaCl, bovine serum albumin (0.1 mg/ml), 0.01% NP-40; room temperature (25°C); One Site-Total nonlinear fit
[1] = target: MBP-SCC1^100–320 with C-terminal tetracysteine motif, unphosphorylated (human) (UniProt O60216)
MBP-SCC1^100–320 with C-terminal tetracysteine motif, unphosphorylated (human), sequence (O60216 100-320): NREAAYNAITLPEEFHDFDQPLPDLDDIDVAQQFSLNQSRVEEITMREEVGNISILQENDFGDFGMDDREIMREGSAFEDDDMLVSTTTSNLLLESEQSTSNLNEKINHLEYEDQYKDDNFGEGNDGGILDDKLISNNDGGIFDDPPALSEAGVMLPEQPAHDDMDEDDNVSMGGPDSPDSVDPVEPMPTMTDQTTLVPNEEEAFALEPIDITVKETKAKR

[2] = target: phosphorylated SCC1 site 1 (100 to 320) (human) (UniProt O60216)
phosphorylated SCC1 site 1 (100 to 320) (human), sequence (O60216 100-320): as above

[3] = target: T1, inactive apo-separase (separase^C2029S) (human, UniProt Q14674 1-2120, C2029S); conditions: both partners purified
T1 construct: human separase (2120 amino acids), amino acids 1 to 2120, catalytic cysteine replaced with serine; Gene-optimised synthetic cDNA in the pF1 vector; also called apo-separase^C2029S; source: Sf9 (baculovirus), purified (Strep-Tactin, heparin, Superose 6)
T1 sequence (Q14674 whole entry C2029S, the tested form may be a part): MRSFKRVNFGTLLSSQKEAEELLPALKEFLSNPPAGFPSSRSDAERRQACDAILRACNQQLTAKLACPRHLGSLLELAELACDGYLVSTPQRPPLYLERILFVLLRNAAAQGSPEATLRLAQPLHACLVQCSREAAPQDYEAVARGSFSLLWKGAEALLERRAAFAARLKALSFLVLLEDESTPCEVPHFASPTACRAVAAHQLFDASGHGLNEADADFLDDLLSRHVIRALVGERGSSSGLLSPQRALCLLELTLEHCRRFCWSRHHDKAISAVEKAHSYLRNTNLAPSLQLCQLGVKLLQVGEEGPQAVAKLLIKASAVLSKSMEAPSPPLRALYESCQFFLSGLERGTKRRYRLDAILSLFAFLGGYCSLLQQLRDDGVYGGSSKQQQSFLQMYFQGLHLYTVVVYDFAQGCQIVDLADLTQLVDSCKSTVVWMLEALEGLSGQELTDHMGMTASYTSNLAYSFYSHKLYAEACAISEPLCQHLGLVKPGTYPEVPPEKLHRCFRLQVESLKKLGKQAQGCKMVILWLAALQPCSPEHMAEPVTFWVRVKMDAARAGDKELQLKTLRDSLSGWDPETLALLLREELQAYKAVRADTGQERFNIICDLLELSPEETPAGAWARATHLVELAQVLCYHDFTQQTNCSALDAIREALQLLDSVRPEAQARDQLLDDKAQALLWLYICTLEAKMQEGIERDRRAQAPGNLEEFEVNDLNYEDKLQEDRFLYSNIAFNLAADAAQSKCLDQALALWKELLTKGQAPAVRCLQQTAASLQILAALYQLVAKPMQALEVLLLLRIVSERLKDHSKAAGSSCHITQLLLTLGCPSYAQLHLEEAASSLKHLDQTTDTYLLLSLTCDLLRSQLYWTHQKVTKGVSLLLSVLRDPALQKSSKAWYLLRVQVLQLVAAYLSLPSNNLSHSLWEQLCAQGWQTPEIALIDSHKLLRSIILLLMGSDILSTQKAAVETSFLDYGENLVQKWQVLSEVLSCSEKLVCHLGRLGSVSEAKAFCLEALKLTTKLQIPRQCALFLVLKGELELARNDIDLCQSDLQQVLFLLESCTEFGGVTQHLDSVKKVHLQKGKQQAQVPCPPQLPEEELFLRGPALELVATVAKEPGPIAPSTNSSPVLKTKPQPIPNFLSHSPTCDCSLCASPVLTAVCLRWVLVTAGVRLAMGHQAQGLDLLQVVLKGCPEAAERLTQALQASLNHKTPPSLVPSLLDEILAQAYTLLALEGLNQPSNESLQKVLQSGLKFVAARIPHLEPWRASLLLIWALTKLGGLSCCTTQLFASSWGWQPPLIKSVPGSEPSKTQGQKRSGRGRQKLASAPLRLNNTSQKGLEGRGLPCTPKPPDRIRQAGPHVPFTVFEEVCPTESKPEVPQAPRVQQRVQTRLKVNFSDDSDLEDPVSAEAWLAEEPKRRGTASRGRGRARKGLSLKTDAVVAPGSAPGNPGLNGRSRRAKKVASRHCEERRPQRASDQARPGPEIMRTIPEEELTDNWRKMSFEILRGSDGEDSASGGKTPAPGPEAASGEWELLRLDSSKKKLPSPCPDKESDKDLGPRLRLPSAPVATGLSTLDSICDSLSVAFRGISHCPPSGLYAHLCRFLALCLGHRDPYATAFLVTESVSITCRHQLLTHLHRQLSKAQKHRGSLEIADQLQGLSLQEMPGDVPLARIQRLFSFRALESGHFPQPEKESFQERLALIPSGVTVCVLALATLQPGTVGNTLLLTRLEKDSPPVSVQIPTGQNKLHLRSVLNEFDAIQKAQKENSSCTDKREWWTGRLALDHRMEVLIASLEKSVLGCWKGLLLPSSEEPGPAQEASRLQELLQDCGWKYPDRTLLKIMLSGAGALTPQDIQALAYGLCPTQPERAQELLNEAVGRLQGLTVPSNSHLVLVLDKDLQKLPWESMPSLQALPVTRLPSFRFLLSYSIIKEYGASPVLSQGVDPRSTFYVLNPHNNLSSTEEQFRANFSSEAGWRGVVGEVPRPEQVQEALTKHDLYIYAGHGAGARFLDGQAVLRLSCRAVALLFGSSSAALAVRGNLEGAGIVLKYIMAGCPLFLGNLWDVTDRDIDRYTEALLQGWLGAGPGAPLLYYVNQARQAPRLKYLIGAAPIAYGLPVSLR

Row | Molecule | fold lower Kd than the SCC1 350-550 construct [1] | fold lower Kd than unphosphorylated SCC1 100-320 [2] | binding result [3]
1 | inactive apo-separase (separase^C2029S), Q14674 1-2120 | 3 fold | 2 fold | 
2 | B1 |  |  | binds
